Measured values taken from US20210246166A1 (Bayer, published 2021).
Each block holds one binder with its values, some of them ahead of it. Bridge positions count the residues as written; N and C are the ends. Square brackets hold non-standard residues; d marks the D form. Ends that are not written are not given here. Oic = O=C(O)[C@@H]1C[C@@H]2CCCC[C@@H]2N1; Nva(3-Et) = CCC(CC)[C@H](N)C(=O)O; tBuAla = CC(C)(C)C[C@H](N)C(=O)O; Chg = N[C@H](C(=O)O)C1CCCCC1; Pen = CC(C)(S)[C@H](N)C(=O)O; 3Amb = NCc1cccc(C(=O)O)c1; Nva = CCC[C@H](N)C(=O)O; Ac4c = NC1(C(=O)O)CCC1; PEG2 = NCCOCCOCCC(=O)O; Sar = CNCC(=O)O

Experiments:
[1] = target: Recombinant human MASP2 enzyme (fragment corresponding to amino acids 297-686, C-terminal His Tag) (human, UniProt O00187 297-686); test: cell-based or functional assay
[2] = target: T1, Recombinant human MASP1 enzyme (fragment corresponding to amino acids 297-699, C-terminal His Tag) (human, UniProt P48740 297-699); test: cell-based or functional assay
T1 sequence: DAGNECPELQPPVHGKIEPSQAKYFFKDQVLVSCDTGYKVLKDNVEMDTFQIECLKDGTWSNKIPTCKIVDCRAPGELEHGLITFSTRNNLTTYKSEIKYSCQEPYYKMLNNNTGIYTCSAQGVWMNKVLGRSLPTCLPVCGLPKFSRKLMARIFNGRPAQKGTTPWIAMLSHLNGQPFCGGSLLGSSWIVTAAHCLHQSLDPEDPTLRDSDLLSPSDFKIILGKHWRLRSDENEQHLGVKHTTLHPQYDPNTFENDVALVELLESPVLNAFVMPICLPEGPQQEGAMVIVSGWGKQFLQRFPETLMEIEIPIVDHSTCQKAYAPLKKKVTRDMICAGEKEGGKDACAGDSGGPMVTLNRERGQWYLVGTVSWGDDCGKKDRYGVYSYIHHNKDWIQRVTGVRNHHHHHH

Recombinant human MASP2 enzyme (fragment corresponding to amino acids 297-686, C-terminal His Tag), sequence (O00187 other isoform, or with tags, fused parts or gaps limits assumed): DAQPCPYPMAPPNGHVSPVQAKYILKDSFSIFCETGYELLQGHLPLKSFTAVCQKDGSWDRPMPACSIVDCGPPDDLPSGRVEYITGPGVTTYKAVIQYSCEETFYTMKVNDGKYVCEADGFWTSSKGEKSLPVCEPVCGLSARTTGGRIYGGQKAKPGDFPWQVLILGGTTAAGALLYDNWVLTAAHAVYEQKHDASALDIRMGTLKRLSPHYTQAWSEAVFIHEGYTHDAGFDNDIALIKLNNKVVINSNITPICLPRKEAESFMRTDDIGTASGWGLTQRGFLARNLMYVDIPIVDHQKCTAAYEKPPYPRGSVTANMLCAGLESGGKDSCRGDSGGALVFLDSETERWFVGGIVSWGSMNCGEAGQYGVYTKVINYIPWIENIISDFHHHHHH

human MASP2 IC50 [1]: 0.1 µM
human MASP1 IC50 [2]: 0.0053 µM
B1: aIC+SRSLP-(Oic)-I-(Pen)+IPE-OH (peptide)
peptide: [dA]ICSRSLP[Oic]I[Pen]IPE-OH
modifications: disulfide 3-11; N-terminus assumed
SMILES: CC[C@H](C)[C@H](NC(=O)[C@@H](C)N)C(=O)N[C@H]1CSSC(C)(C)[C@@H](C(=O)N[C@H](C(=O)N2CCC[C@H]2C(=O)N[C@@H](CCC(=O)O)C(=O)O)[C@@H](C)CC)NC(=O)[C@H]([C@@H](C)CC)NC(=O)[C@@H]2C[C@@H]3CCCC[C@@H]3N2C(=O)[C@@H]2CCCN2C(=O)[C@H](CC(C)C)NC(=O)[C@H](CO)NC(=O)[C@H](CCCNC(=N)N)NC(=O)[C@H](CO)NC1=O

human MASP2 IC50 [1]: 0.044 µM
human MASP1 IC50 [2]: 0.0057 µM
B2: AIC+SRSLPP-(Chg)-(Pen)+IPD-NH2 (peptide)
peptide: AICSRSLPP[Chg][Pen]IPD-NH2
modifications: disulfide 3-11; N-terminus assumed
SMILES: CC[C@H](C)[C@H](NC(=O)[C@H](C)N)C(=O)N[C@H]1CSSC(C)(C)[C@@H](C(=O)N[C@H](C(=O)N2CCC[C@H]2C(=O)N[C@@H](CC(=O)O)C(N)=O)[C@@H](C)CC)NC(=O)[C@H](C2CCCCC2)NC(=O)[C@@H]2CCCN2C(=O)[C@@H]2CCCN2C(=O)[C@H](CC(C)C)NC(=O)[C@H](CO)NC(=O)[C@H](CCCNC(=N)N)NC(=O)[C@H](CO)NC1=O

human MASP2 IC50 [1]: 0.074 µM
human MASP1 IC50 [2]: 0.0057 µM
B3: ((N-Me)G)-IC+SRS-((tBu)A)-PPI-(Pen)+IP-(PEG1(10 atoms))-NH2 (peptide)
peptide: [Sar]ICSRS[tBuAla]PPI[Pen]IP[PEG2]-NH2
modifications: disulfide 3-11; N-terminus assumed
SMILES: CC[C@H](C)[C@H](NC(=O)CNC)C(=O)N[C@H]1CSSC(C)(C)[C@@H](C(=O)N[C@H](C(=O)N2CCC[C@H]2C(=O)NCCOCCOCCC(N)=O)[C@@H](C)CC)NC(=O)[C@H]([C@@H](C)CC)NC(=O)[C@@H]2CCCN2C(=O)[C@@H]2CCCN2C(=O)[C@H](CC(C)(C)C)NC(=O)[C@H](CO)NC(=O)[C@H](CCCNC(=N)N)NC(=O)[C@H](CO)NC1=O

human MASP2 IC50 [1]: 0.015 µM
human MASP1 IC50 [2]: 0.0057 µM
B4: (ACBA)-IC+SRS-((tBu)A)-PPI-(Pen)+I-NH2 (peptide)
peptide: [Ac4c]ICSRS[tBuAla]PPI[Pen]I-NH2
modifications: disulfide 3-11; N-terminus assumed
SMILES: CC[C@H](C)[C@H](NC(=O)[C@H]1NC(=O)[C@H]([C@@H](C)CC)NC(=O)[C@@H]2CCCN2C(=O)[C@@H]2CCCN2C(=O)[C@H](CC(C)(C)C)NC(=O)[C@H](CO)NC(=O)[C@H](CCCNC(=N)N)NC(=O)[C@H](CO)NC(=O)[C@@H](NC(=O)[C@@H](NC(=O)C2(N)CCC2)[C@@H](C)CC)CSSC1(C)C)C(N)=O

human MASP2 IC50 [1]: 0.061 µM
human MASP1 IC50 [2]: 0.0058 µM
B5: AIC+SRS-((tBu)A)-PPIC+IDD-OH (peptide)
peptide: AICSRS[tBuAla]PPICIDD-OH
modifications: disulfide 3-11; N-terminus assumed
SMILES: CC[C@H](C)[C@H](NC(=O)[C@H](C)N)C(=O)N[C@H]1CSSC[C@@H](C(=O)N[C@H](C(=O)N[C@@H](CC(=O)O)C(=O)N[C@@H](CC(=O)O)C(=O)O)[C@@H](C)CC)NC(=O)[C@H]([C@@H](C)CC)NC(=O)[C@@H]2CCCN2C(=O)[C@@H]2CCCN2C(=O)[C@H](CC(C)(C)C)NC(=O)[C@H](CO)NC(=O)[C@H](CCCNC(=N)N)NC(=O)[C@H](CO)NC1=O

human MASP2 IC50 [1]: 0.19 µM
human MASP1 IC50 [2]: 0.0052 µM
B6: ((N-Me)G)-IC+SRSLP-(Oic)-I-(Pen)+IPQ-NH2 (peptide)
peptide: [Sar]ICSRSLP[Oic]I[Pen]IPQ-NH2
modifications: disulfide 3-11; N-terminus assumed
SMILES: CC[C@H](C)[C@H](NC(=O)CNC)C(=O)N[C@H]1CSSC(C)(C)[C@@H](C(=O)N[C@H](C(=O)N2CCC[C@H]2C(=O)N[C@@H](CCC(N)=O)C(N)=O)[C@@H](C)CC)NC(=O)[C@H]([C@@H](C)CC)NC(=O)[C@@H]2C[C@@H]3CCCC[C@@H]3N2C(=O)[C@@H]2CCCN2C(=O)[C@H](CC(C)C)NC(=O)[C@H](CO)NC(=O)[C@H](CCCNC(=N)N)NC(=O)[C@H](CO)NC1=O

human MASP2 IC50 [1]: 0.13 µM
human MASP1 IC50 [2]: 0.0053 µM
B7: aIC+SRSLP-(Oic)-I-(Pen)+IPQ-NH2 (peptide)
peptide: [dA]ICSRSLP[Oic]I[Pen]IPQ-NH2
modifications: disulfide 3-11; N-terminus assumed
SMILES: CC[C@H](C)[C@H](NC(=O)[C@@H](C)N)C(=O)N[C@H]1CSSC(C)(C)[C@@H](C(=O)N[C@H](C(=O)N2CCC[C@H]2C(=O)N[C@@H](CCC(N)=O)C(N)=O)[C@@H](C)CC)NC(=O)[C@H]([C@@H](C)CC)NC(=O)[C@@H]2C[C@@H]3CCCC[C@@H]3N2C(=O)[C@@H]2CCCN2C(=O)[C@H](CC(C)C)NC(=O)[C@H](CO)NC(=O)[C@H](CCCNC(=N)N)NC(=O)[C@H](CO)NC1=O

human MASP2 IC50 [1]: 0.016 µM
human MASP1 IC50 [2]: 0.0054 µM
B8: (3-(Aminomethyl)benzoic acid)-IC+SRS-((tBu)A)-PPI-(Pen)+IP-NH2 (peptide)
peptide: [3Amb]ICSRS[tBuAla]PPI[Pen]IP-NH2
modifications: disulfide 3-11; N-terminus assumed
SMILES: CC[C@H](C)[C@H](NC(=O)c1cccc(CN)c1)C(=O)N[C@H]1CSSC(C)(C)[C@@H](C(=O)N[C@H](C(=O)N2CCC[C@H]2C(N)=O)[C@@H](C)CC)NC(=O)[C@H]([C@@H](C)CC)NC(=O)[C@@H]2CCCN2C(=O)[C@@H]2CCCN2C(=O)[C@H](CC(C)(C)C)NC(=O)[C@H](CO)NC(=O)[C@H](CCCNC(=N)N)NC(=O)[C@H](CO)NC1=O

human MASP2 IC50 [1]: 0.051 µM
human MASP1 IC50 [2]: 0.0058 µM
B9: AIC+SRSLPP-((S)-2-amino-3-ethyl-pentanoic acid)-C+IPD-NH2 (peptide)
peptide: AICSRSLPP[Nva(3-Et)]CIPD-NH2
modifications: disulfide 3-11; N-terminus assumed
SMILES: CCC(CC)[C@@H]1NC(=O)[C@@H]2CCCN2C(=O)[C@@H]2CCCN2C(=O)[C@H](CC(C)C)NC(=O)[C@H](CO)NC(=O)[C@H](CCCNC(=N)N)NC(=O)[C@H](CO)NC(=O)[C@@H](NC(=O)[C@@H](NC(=O)[C@H](C)N)[C@@H](C)CC)CSSC[C@@H](C(=O)N[C@H](C(=O)N2CCC[C@H]2C(=O)N[C@@H](CC(=O)O)C(N)=O)[C@@H](C)CC)NC1=O

human MASP2 IC50 [1]: 0.019 µM
human MASP1 IC50 [2]: 0.0052 µM
B10: A-(Nva)-C+SRS-((tBu)A)-PPI-(Pen)+IPD-NH2 (peptide)
peptide: A[Nva]CSRS[tBuAla]PPI[Pen]IPD-NH2
modifications: disulfide 3-11; N-terminus assumed
SMILES: CCC[C@H](NC(=O)[C@H](C)N)C(=O)N[C@H]1CSSC(C)(C)[C@@H](C(=O)N[C@H](C(=O)N2CCC[C@H]2C(=O)N[C@@H](CC(=O)O)C(N)=O)[C@@H](C)CC)NC(=O)[C@H]([C@@H](C)CC)NC(=O)[C@@H]2CCCN2C(=O)[C@@H]2CCCN2C(=O)[C@H](CC(C)(C)C)NC(=O)[C@H](CO)NC(=O)[C@H](CCCNC(=N)N)NC(=O)[C@H](CO)NC1=O

human MASP2 IC50 [1]: 0.17 µM
human MASP1 IC50 [2]: 0.0054 µM
B11: ((N-Me)G)-IC+SRSLP-(Oic)-I-(Pen)+IPQ-OH (peptide)
peptide: [Sar]ICSRSLP[Oic]I[Pen]IPQ-OH
modifications: disulfide 3-11; N-terminus assumed
SMILES: CC[C@H](C)[C@H](NC(=O)CNC)C(=O)N[C@H]1CSSC(C)(C)[C@@H](C(=O)N[C@H](C(=O)N2CCC[C@H]2C(=O)N[C@@H](CCC(N)=O)C(=O)O)[C@@H](C)CC)NC(=O)[C@H]([C@@H](C)CC)NC(=O)[C@@H]2C[C@@H]3CCCC[C@@H]3N2C(=O)[C@@H]2CCCN2C(=O)[C@H](CC(C)C)NC(=O)[C@H](CO)NC(=O)[C@H](CCCNC(=N)N)NC(=O)[C@H](CO)NC1=O
